From publication PMC2563037
Non-standard residues stand in square brackets, D forms with d. No end group written: not given here. Abu = CC[C@H](N)C(=O)O

B1: S598_(Q600Y)-Aba peptide (heteroclitic S598 determinant with Q to Y at position 3, cysteine replaced by L-alpha-aminobutyric acid) (peptide)
peptide: R[Abu]YIFANI
B2: S598-Aba peptide (S598 determinant of the JHMV spike glycoprotein, cysteine replaced by L-alpha-aminobutyric acid) (peptide)
peptide: R[Abu]QIFANI

Biological target: H-2K^b (MHC class I heavy chain with its light chain, the 'heterodimer' of the crystal structures) (mouse | not stated)
Experiment: circular dichroism thermal melt; far-UV CD of the H-2K^b/peptide-Aba complexes, thermostatted cuvette, 30 to 90°C

| Binder | Tm of the complex |
| --- | --- |
| B1 | 64 °C |
| B2 | 54 °C |
